Laboratory results reported in patent US20210253716A1 (Regeneron, published 2021).
Positions count from the first letter of the chain named. Values belong to the binder of their own block, whether it stands above or below them.

How the values were obtained:
[1] = biological target: T1, full length human ACVR1 (R206H) on HEK293/BRE-luc/hACVR1-R206H-clone H2 cells (human, UniProt Q04771 21-509); assay: cell-based or functional assay
T1 sequence: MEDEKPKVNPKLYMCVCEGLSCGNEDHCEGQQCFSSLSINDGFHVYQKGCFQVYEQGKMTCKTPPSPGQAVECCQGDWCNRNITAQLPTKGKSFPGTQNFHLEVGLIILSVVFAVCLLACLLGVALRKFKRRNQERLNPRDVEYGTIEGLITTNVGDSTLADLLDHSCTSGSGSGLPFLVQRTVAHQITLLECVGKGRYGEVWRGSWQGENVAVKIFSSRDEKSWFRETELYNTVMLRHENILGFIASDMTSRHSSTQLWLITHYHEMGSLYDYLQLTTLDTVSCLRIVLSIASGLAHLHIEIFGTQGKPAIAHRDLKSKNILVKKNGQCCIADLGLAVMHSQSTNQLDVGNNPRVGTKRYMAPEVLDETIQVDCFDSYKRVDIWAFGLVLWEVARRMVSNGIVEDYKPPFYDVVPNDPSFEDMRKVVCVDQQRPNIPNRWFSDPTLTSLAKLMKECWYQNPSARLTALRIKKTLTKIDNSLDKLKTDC

[2] = biological target: T2, human ACVR1 extracellular domain expressed with a C-terminal myc-myc-hexahistidine tag (human); assay: SPR (Biacore), mAb captured, 25 C
T2 construct: also called hACVR1-MMH
T2 chain: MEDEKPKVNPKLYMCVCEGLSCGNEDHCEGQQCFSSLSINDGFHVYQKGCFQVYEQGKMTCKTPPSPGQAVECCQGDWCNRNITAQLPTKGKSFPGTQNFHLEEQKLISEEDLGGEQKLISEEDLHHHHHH
Procedure: (§1) Equilibrium dissociation constants (KD) for ACVR1 binding to purified anti-ACVR1 monoclonal antibodies were determined using a real-time surface plasmon resonance biosensor (SPR-Biacore), Biacore 4000. All binding studies were performed in 10 mM HEPES, 150 mM NaCl, 3 mM EDTA, and 0.05% v/v surfactant Tween-20, pH 7.4 (HBS-ET) running buffer at 25° C. and 37° C. The Biacore CM5 sensor surface was first derivatized by amine coupling with a monoclonal mouse anti-human Fc antibody (GE, #BR-1008-39 or REGN2567) to capture anti-ACVR1 monoclonal antibodies. […] ACVR1 reagents were then injected over anti-human Fc captured anti-ACVR1 monoclonal antibody surface for 2.5-3 minutes at a flow rate of 30 μL/minute, while the dissociation of monoclonal antibody bound ACVR1 reagent was monitored for 10-15 minutes in HBS-ET running buffer. Kinetic association rate constant (kₐ) and dissociation rate constant (kd) were determined by fitting the real-time sensorgrams to a 1:1 binding model using Scrubber 2.0c curve-fitting software. Binding dissociation equilibrium constants (KD) and dissociative half-lives (t½) were calculated from the kinetic rate constants as: […]

[3] = biological target: T3, human ACVR1 extracellular domain expressed with a C-terminal mouse IgG2a Fc tag (human); assay: SPR (Biacore), mAb captured, 25 C
T3 construct: also called hACVR1-mFc
T3 chain: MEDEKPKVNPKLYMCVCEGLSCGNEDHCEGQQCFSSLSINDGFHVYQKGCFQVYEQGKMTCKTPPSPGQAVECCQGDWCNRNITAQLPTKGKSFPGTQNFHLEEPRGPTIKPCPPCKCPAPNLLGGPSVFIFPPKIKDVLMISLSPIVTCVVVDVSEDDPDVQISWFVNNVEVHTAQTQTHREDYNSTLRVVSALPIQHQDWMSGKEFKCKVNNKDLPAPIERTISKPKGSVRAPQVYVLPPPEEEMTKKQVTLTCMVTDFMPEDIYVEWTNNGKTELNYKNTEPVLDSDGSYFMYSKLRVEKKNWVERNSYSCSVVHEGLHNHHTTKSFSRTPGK
Procedure: as §1

[4] = biological target: T4, mouse ACVR1 extracellular domain expressed with a C-terminal myc-myc-hexahistidine tag (mouse); assay: SPR (Biacore), mAb captured, 25 C
T4 construct: also called mACVR1-MMH; mACVR1-mmh
T4 chain: T2 chain with M1V, P10Q
Procedure: as §1

[5] = biological target: T2, human ACVR1 extracellular domain …; assay: SPR (Biacore), mAb captured, 37 C
Procedure: as §1

[6] = biological target: T3, human ACVR1 extracellular domain …; assay: SPR (Biacore), mAb captured, 37 C
Procedure: as §1

[7] = biological target: T4, mouse ACVR1 extracellular domain …; assay: SPR (Biacore), mAb captured, 37 C
Procedure: as §1

[8] = biological target: T1, full length human ACVR1 (R206H) on …; assay: flow cytometry, 70 nM antibody, HEK293/hACVR1-R206H cells
Procedure: Cells were fixed using BD CytoFix™ (Becton Dickinson, #554655) and analyzed on either Hypercyt® or IQue® Flow Cytometers (Intellicyt®). Unstained and secondary antibody alone controls were also tested for all cell lines. The results were analyzed using ForeCyt® (IntelliCyt®) software to determine the geometric means of fluorescence for viable cells and binding ratios were calculated by normalizing the geometric mean value of the test condition by the geometric mean value of the corresponding unstained cells.

[9] = biological target: T2, human ACVR1 extracellular domain …; assay: SPR (Biacore), mAb captured, 37 C; 37 C
Procedure: as §1

% Inhibition, BRE-luc reporter, 2 nM hBMP7 [1]: 107% | IC50 [M], BRE-luc reporter, 2 nM hBMP7 [1]: 7.6e-10 M | 900 nM or 100 nM Ag Bound (RU) [2]: 37 RU | Kd [2]: 21 nM | koff [2]: 0.00147 s⁻¹ | kon [2]: 69900 M⁻¹ s⁻¹ | t½ [2]: 8 min | 100 nM Ag Bound (RU) [3]: 142 RU | Kd [3]: 1.9 nM | koff [3]: 0.000201 s⁻¹ | kon [3]: 106000 M⁻¹ s⁻¹ | t½ [3]: 57 min | 900 nM or 100 nM Ag Bound (RU) [4]: 0 RU | binding result [4]: no binding (tested: 900 nM or 100 nM) | 900 nM or 100 nM Ag Bound (RU) [5]: 52 RU | Kd [5]: 44.4 nM | koff [5]: 0.00528 s⁻¹ | kon [5]: 119000 M⁻¹ s⁻¹ | t½ [5]: 2.2 min | 100 nM Ag Bound (RU) [6]: 185 RU | Kd [6]: 3.18 nM | koff [6]: 0.000742 s⁻¹ | kon [6]: 233000 M⁻¹ s⁻¹ | t½ [6]: 16 min | 900 nM or 100 nM Ag Bound (RU) [7]: 2 RU | MFI - Normalized to Unstained Control [8]: 1560 fold
B1: mAb27405 (antibody, human IgG4 S228P, kappa, V domains shown)
VH: QVQLVESGGGLVKPGGSLRLSCAASGFTFSDYYMSWIRQAPGKGLEWVSYISRTGSTKYYADSVKGRFTISRDNAKNSLNLQMSSLRAEDTAVYFCAREPLQHWGQGTLVTVSS
VL: KIVLTQTPLSSPVTLGQPASISCRSSQSLVHSDGDTYLSWLHQRPGQPPRLLIYTISNRLSGVPDRFSGSGAGTDFTLKISRVEAEDVGVYYCMQGTQFPALTFGGGTKVEIKR

% Inhibition, BRE-luc reporter, 2 nM hBMP7 [1]: 109% | IC50 [M], BRE-luc reporter, 2 nM hBMP7 [1]: 8.8e-10 M | 900 nM or 100 nM Ag Bound (RU) [2]: 46 RU | Kd [2]: 4.49 nM | koff [2]: 0.000446 s⁻¹ | kon [2]: 99200 M⁻¹ s⁻¹ | t½ [2]: 26 min | 100 nM Ag Bound (RU) [3]: 160 RU | Kd [3]: 0.444 nM | koff [3]: 8.76e-05 s⁻¹ | kon [3]: 198000 M⁻¹ s⁻¹ | t½ [3]: 132 min | 900 nM or 100 nM Ag Bound (RU) [4]: 1 RU | binding result [4]: no binding (tested: 900 nM or 100 nM) | 900 nM or 100 nM Ag Bound (RU) [5]: 67 RU | Kd [5]: 7.63 nM | koff [5]: 0.00183 s⁻¹ | kon [5]: 240000 M⁻¹ s⁻¹ | t½ [5]: 6 min | 100 nM Ag Bound (RU) [6]: 216 RU | Kd [6]: 1.11 nM | koff [6]: 0.000338 s⁻¹ | kon [6]: 303000 M⁻¹ s⁻¹ | t½ [6]: 34 min | 900 nM or 100 nM Ag Bound (RU) [7]: 4 RU | MFI - Normalized to Unstained Control [8]: 1870 fold
B2: mAb27404 (antibody, human IgG4 S228P, kappa, V domains shown)
VH: B1 VH with V48I, Y50F
VL: B1 VL with K1N, I2V, L9I, T14I, I56V, L60V

% Inhibition, BRE-luc reporter, 2 nM hBMP7 [1]: 96% | IC50 [M], BRE-luc reporter, 2 nM hBMP7 [1]: 2e-09 M | 100 nM Ag Bound (RU) [3]: 24 RU | Kd [3]: 11.9 nM | koff [3]: 0.000142 s⁻¹ | kon [3]: 11900 M⁻¹ s⁻¹ | t½ [3]: 81 min | 900 nM or 100 nM Ag Bound (RU) [4]: -3 RU | 100 nM Ag Bound (RU) [6]: 68 RU | Kd [6]: 12.8 nM | koff [6]: 0.000163 s⁻¹ | kon [6]: 12700 M⁻¹ s⁻¹ | t½ [6]: 71 min | 900 nM or 100 nM Ag Bound (RU) [7]: 2 RU | Kd [9]: 49 nM | koff [9]: 0.000476 s⁻¹ | kon [9]: 9710 M⁻¹ s⁻¹ | t½ [9]: 24 min | MFI - Normalized to Unstained Control [8]: 840 fold
B3: mAb27400 (antibody, human IgG4 S228P, kappa, V domains shown)
VH: EMQLVESGGGLVQPGGSLKVSCAASGFTLSDSSIHWVRQASGKGLEWIGRIRSKPYSYATAYAASVKGRFTISRDDSKNTAFLQMSGLKTEDTAVYYCTGGDDFWGQGTLVTVSS
VL: DIQMTQSPSTLSASVGDRITITCRASQSISTWLAWYQQKPGKAPKLLIYKASSLEGGVPSRFSGSGSGTDFTLTISSLQPDDFATYYCQQYNTYWTFGQGTKVEIKR
